Assay results as given in patent US20040077835A1.

Legend:
[1] = molecular target: CCR5 (Homo sapiens (Human)) (UniProt P51681)
[2] = molecular target: CCR5 (Homo sapiens (Human)) (UniProt P51681); remark: listed apart in the source
[3] = molecular target: CCR5 (Homo sapiens (Human)) (UniProt P51681); remark: listed apart in the source

For “NNY-P-Y3tbuA-RANTES (4-68) (from UniProt P13501) (ligand)”, the Mean Relative Potency (IC50 in the envelope-mediated cell fusion assay, relative to AOP-RANTES = 100) (relative to AOP-RANTES = 100) [1] was 7, the Average Infectivity IC50 (cell-free viral infection assay) [2] was 0.014 nM and the Cell-Fusion Result For Comparison (IC50) [2] was 0.038 nM. It also gave an inhibition of envelope-mediated cell fusion [3] of over 50 % inhibition.
Work on “NNY-P2Thz-Y3Chg-RANTES (4-68) (from UniProt P13501) (ligand)” yielded a Mean Relative Potency (IC50 in the envelope-mediated cell fusion assay, relative to AOP-RANTES = 100) (relative to AOP-RANTES = 100) [1] of 2 and an inhibition of envelope-mediated cell fusion [3] of over 50 % inhibition.
Work on “NNY-P2Thz-Y3tButA-RANTES (4-68) (from UniProt P13501) (ligand)” yielded a Mean Relative Potency (IC50 in the envelope-mediated cell fusion assay, relative to AOP-RANTES = 100) (relative to AOP-RANTES = 100) [1] of 4 and an inhibition of envelope-mediated cell fusion [3] of over 50 % inhibition.
“NNY-P-Y3Chg-RANTES (4-68) (from UniProt P13501) (ligand)” was tested, and the Mean Relative Potency (IC50 in the envelope-mediated cell fusion assay, relative to AOP-RANTES = 100) (relative to AOP-RANTES = 100) [1] was 7, the Average Infectivity IC50 (cell-free viral infection assay) [2] was 0.012 nM and the Cell-Fusion Result For Comparison (IC50) [2] was 0.026 nM. For the same substance, the inhibition of envelope-mediated cell fusion [3] was over 50 % inhibition.
